Reference: PMC10995199, “Architecture and regulation of filamentous human cystathionine beta-synthase” (Nature Communications, 2024)

Target: the molecule itself
Test: SEC + native gel or EMSA; control constructs in analytical Superose 6 gel filtration and clear-native and blue-native PAGE (Supplementary Fig. 2); self-association

B1: human cystathionine beta-synthase catalytic domain alone (CBS^CD, residues 1–413) (domain or fragment, UniProt P35520 1-413, looked up)
chain: MPSETPQAEVGPTGCPHRSGPHSAKGSLEKGSPEDKEAKEPLWIRPDAPSRCTWQLGRPASESPHHHTAPAKSPKILPDILKKIGDTPMVRINKIGKKFGLKCELLAKCEFFNAGGSVKDRISLRMIEDAERDGTLKPGDTIIEPTSGNTGIGLALAAAVRGYRCIIVMPEKMSSEKVDVLRALGAEIVRTPTNARFDSPESHVGVAWRLKNEIPNSHILDQYRNASNPLAHYDTTADEILQQCDGKLDMLVASVGTGGTITGIARKLKEKCPGCRIIGVDPEGSILAEPEELNQTEQTTYEVEGIGYDFIPTVLDRTVVDKWFKSNDEEAFTFARMLIAQEGLLCGGSAGSTVAVAVKAAQELQEGQRCVVILPDSVRNYMTKFLSDRWMLQKGFLKEEDLTEKKPWWWHLR
notes: source: E. coli Rosetta (DE3), purified
For B1, the “stoichiometry N” value was 2.
